± gives the uncertainty stated by the source.
Test: protein stability index of a GFP-peptide fusion (yeast GPS) (PSI 1-4); higher = more stable; sorted into four equal gates, so the index is relative within each strain
Method in brief: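 Each library plasmid carries Cherry plus GFP with a tiled 17-residue yeast protein peptide fused downstream, and the pooled library was carried in yeast. Mid-log cultures in leucine-free medium were sorted into four equal gates by GFP/Cherry ratio. Reads from Illumina sequencing of PCR-amplified plasmids from each gate were assigned to strains by barcodes. Per peptide, the protein stability index was computed as the summed products of gate read frequency and gate number.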

| Sequence | protein stability index (doa10∆) | protein stability index (pdr5∆) | protein stability index (san1∆) | protein stability index (ubr1∆) |
| --- | --- | --- | --- | --- |
| EEVMRIALMGQDNKKIY [ESC2] | 2.53 ± 0.07 | 2.72 ± 0.12 | 2.2 ± 0.11 | 2.64 ± 0.051 |
| ALQILNSGIIPGNRNAD [FAS2] | 2.38 ± 0.075 | 1.9 ± 0.068 | 2.72 ± 0.1 | 2.8 ± 0.052 |
| ILSEILCQINKCSTRGL [YML103C/NUP188] | 1.31 ± 0.088 | 1.55 ± 0.084 | 1.98 ± 0.097 | 2 ± 0.057 |
| RRADVKTATVKINKKLN [RPL38] | 1.83 ± 0.058 | 1.84 ± 0.041 | 2.17 ± 0.086 | 1.62 ± 0.039 |
| RKILESSNIVNENDSQA [YIL149C/MLP2] | – | 2.88 ± 0.14 | 2.89 ± 0.085 | – |
| ENNRLLFECRTCSYVEE [RPB9] | 3.12 ± 0.13 | 3.2 ± 0.14 | 3.04 ± 0.17 | 3.29 ± 0.16 |
| ENDQQDNEEWMNDVINT [LIN1] | 3.36 ± 0.076 | 3.24 ± 0.073 | 3.19 ± 0.058 | 2.98 ± 0.071 |
| AMVEKYAPDVVRSLENL [RRP42] | 2.59 ± 0.13 | 2.81 ± 0.067 | 2.65 ± 0.052 | 3.14 ± 0.038 |
| KLQLGQLYESGNPVNDA [COR1] | 3.03 ± 0.076 | 2.98 ± 0.091 | 3.17 ± 0.065 | 3.01 ± 0.077 |
| IILLGVLEDCRHLPMYT [ITC1] | 1.37 ± 0.064 | 1.59 ± 0.054 | 2.44 ± 0.099 | 2.47 ± 0.067 |
| LTLRKAKAPSGLDQSRI [FAS1] | 3.05 ± 0.12 | 2.98 ± 0.11 | 3.17 ± 0.12 | 3.13 ± 0.081 |
| EEKGWVPVTKLGRLVKA [RPS2] | 3.45 ± 0.086 | 3.44 ± 0.13 | 3.51 ± 0.072 | 3.48 ± 0.072 |
| VRSANEDGTFSVLYPDE [RRP43] | 3.13 ± 0.088 | 3.02 ± 0.088 | 3.18 ± 0.06 | 3.28 ± 0.1 |
| IDSQMDEASGTPDEDML [GRR1] | 2.93 ± 0.063 | 2.96 ± 0.065 | 2.85 ± 0.068 | 3.02 ± 0.053 |
| DSTVNKSITLKGRNNES [YDL088C/ASM4] | 3.28 ± 0.09 | 3.38 ± 0.084 | 3.23 ± 0.058 | 3.21 ± 0.079 |
| ERLMISSDAFEVDVCDK [RET1] | 2.31 ± 0.11 | 2.63 ± 0.05 | 2.04 ± 0.061 | 2.21 ± 0.061 |
| LQAQLDYLNAELGEFFV [FAS2] | 3.06 ± 0.18 | – | 2.94 ± 0.17 | 3.18 ± 0.16 |
| GGESAYFFQLQIRSADE [RPC11] | 2.73 ± 0.06 | 2.88 ± 0.062 | 2.71 ± 0.06 | 3.22 ± 0.062 |
| KLLGVDMQSSVDTGLQP [YLR018C/POM34] | 3.17 ± 0.077 | 3.12 ± 0.067 | 3.1 ± 0.062 | 3.14 ± 0.053 |
| AFRRIMISEVPSVAAEY [RPC40] | 1.35 ± 0.052 | 1.49 ± 0.056 | 1.51 ± 0.079 | 1.25 ± 0.049 |
| DELCKLVTCEGSEEKAF [SRP54] | 2.92 ± 0.18 | 2.3 ± 0.18 | 1.95 ± 0.18 | 2.25 ± 0.13 |
| CKKKEMSQYQSTMKENK [YIL149C/MLP2] | 2.49 ± 0.088 | 2.76 ± 0.073 | 1.42 ± 0.23 | 2.55 ± 0.071 |
| TKFSKLIGRPPLLVPGM [FAS1] | 1.16 ± 0.071 | 2 ± 0.064 | 1.91 ± 0.078 | 1.65 ± 0.041 |
| ESNDRINKIVEILTNQQ [YGR119C/NUP57] | – | 2.77 ± 0.23 | 2.57 ± 0.13 | 2.23 ± 0.085 |
| KERIIRAFLIEEQKIVK [RPL34A] | 3.06 ± 0.082 | 2.26 ± 0.087 | 2.04 ± 0.13 | 2.49 ± 0.066 |
| LDSQETPSTEESRAQNV [SWI3] | 2.41 ± 0.091 | 2.38 ± 0.12 | 3.16 ± 0.089 | 2.37 ± 0.051 |

| Sequence | protein stability index (doa10∆) | protein stability index (pdr5∆) | protein stability index (san1∆) | protein stability index (ubr1∆) |
| --- | --- | --- | --- | --- |
| TAFKATVFFLIRVAETR [YJL039C/NUP192] | 1.53 ± 0.087 | 1.22 ± 0.063 | 1.12 ± 0.12 | 1.47 ± 0.048 |
| PNISHSNIDYQTLLANS [SNF2] | 3.33 ± 0.17 | 2.7 ± 0.18 | 2.58 ± 0.22 | 2.82 ± 0.11 |
| VIIKGFKTYRNETIIDN [SMC3] | 2.58 ± 0.22 | 2.63 ± 0.27 | 2.94 ± 0.17 | – |
| LAEEKIRAAGGVVELIA [RPL28] | 2.919 ± 0.025 | 3.072 ± 0.024 | 2.935 ± 0.023 | 2.931 ± 0.02 |
| LKPKLYYEQFRPDLIKE [SIR3] | 3.06 ± 0.073 | 3.15 ± 0.06 | 3.25 ± 0.05 | 3.33 ± 0.045 |
| KYLPHAILKLLENMPHP [PRP8] | 2 ± 0.081 | 1.46 ± 0.056 | 1.67 ± 0.1 | 1.61 ± 0.042 |
| LKSLYSFFNISPDAPKE [SIN4] | 2.32 ± 0.093 | 1.38 ± 0.048 | 1.43 ± 0.079 | 1.84 ± 0.049 |
| EQNHLDNNYNTAETNNK [YDL088C/ASM4] | 3 ± 0.056 | 2.96 ± 0.067 | 3.02 ± 0.043 | 2.93 ± 0.065 |
| PVKALNECIASTSNALK [SNF12] | 2.85 ± 0.056 | 2.8 ± 0.066 | 2.75 ± 0.05 | 2.81 ± 0.051 |
| VLSTFTAEFGKILAGLH [RPN10] | 3.11 ± 0.14 | 3.44 ± 0.15 | 3.1 ± 0.14 | 3.05 ± 0.11 |
| KDGGDKPPSSAFNFSFN [YAR002W/NUP60] | 3.18 ± 0.066 | 3.22 ± 0.054 | 3.17 ± 0.052 | 3.29 ± 0.061 |
| KGALMYGPPGTGKTLLA [RPT5] | 2.18 ± 0.074 | 2.24 ± 0.069 | 2.3 ± 0.18 | 1.35 ± 0.11 |
| ERLHELKKLQSDIESAN [SMC1] | 2.99 ± 0.076 | 3.23 ± 0.12 | 3.19 ± 0.061 | 3.2 ± 0.067 |
| YKVDAEGKVTKLRRECS [RPS31] | 2.68 ± 0.12 | 2.92 ± 0.14 | 2.67 ± 0.12 | 3.22 ± 0.078 |
| IEWCSRCNDNLMRSCFY [YJL039C/NUP192] | 3.17 ± 0.089 | 2.68 ± 0.085 | 2.9 ± 0.067 | 2.69 ± 0.083 |
| KASVTIVFDNTDKSNSP [SMC2] | 2.99 ± 0.045 | 3.02 ± 0.044 | 2.9 ± 0.042 | 3.156 ± 0.028 |
| MNKDQAEKYQERSLRQK [SNM1] | 3.3 ± 0.089 | 3.25 ± 0.089 | 3.35 ± 0.069 | 3.53 ± 0.093 |
| IRSSRSRGIVIGSGAMS [RPP1] | 2.63 ± 0.085 | 2.77 ± 0.09 | 2.63 ± 0.091 | 2.46 ± 0.073 |
| NMMDAISFVLGVRSNHL [SMC1] | 2.28 ± 0.063 | 2.58 ± 0.079 | 2.77 ± 0.067 | 2.66 ± 0.064 |
| KISLLRPSFQNNRISNA [SWP82] | 2.46 ± 0.042 | 2.37 ± 0.046 | 2.23 ± 0.078 | 2.27 ± 0.041 |
| PEREVLVRELYQWRDLI [RRP6] | 2.91 ± 0.057 | 2.78 ± 0.07 | 2.67 ± 0.066 | 2.58 ± 0.049 |
| AMLNLINDNNTRPYILE [YCG1] | 3.22 ± 0.11 | 3.35 ± 0.15 | 3.08 ± 0.11 | 3.23 ± 0.19 |
| KLIKFETRNEDDVVVLT [FAS1] | 3.32 ± 0.17 | 2.93 ± 0.13 | 3.07 ± 0.063 | 3.12 ± 0.16 |
| NIKTIAETLAEELINAA [RPS5] | 2.29 ± 0.067 | 2.87 ± 0.073 | 2.85 ± 0.057 | 2.46 ± 0.048 |
| RTSATREDTPLSQNEST [ISW2] | 2.99 ± 0.072 | 3.16 ± 0.064 | 2.93 ± 0.062 | 2.96 ± 0.05 |
